Measurements published in patent US20140107039A1 (ROCKEFELLER UNIVERSITY, published 2014).

Target: Polycomb Repressive Complex 2 (PRC2), purified through FLAG-tagged human EED from HeLa or HEK293T nuclear … (human, UniProt O75530 1-441; Q15910 1-746)
Assay: cell-based or functional assay

Sequence of Polycomb Repressive Complex 2 (PRC2), purified through FLAG-tagged human EED from HeLa or HEK293T nuclear … (O75530 whole entry, chain 1 of 2): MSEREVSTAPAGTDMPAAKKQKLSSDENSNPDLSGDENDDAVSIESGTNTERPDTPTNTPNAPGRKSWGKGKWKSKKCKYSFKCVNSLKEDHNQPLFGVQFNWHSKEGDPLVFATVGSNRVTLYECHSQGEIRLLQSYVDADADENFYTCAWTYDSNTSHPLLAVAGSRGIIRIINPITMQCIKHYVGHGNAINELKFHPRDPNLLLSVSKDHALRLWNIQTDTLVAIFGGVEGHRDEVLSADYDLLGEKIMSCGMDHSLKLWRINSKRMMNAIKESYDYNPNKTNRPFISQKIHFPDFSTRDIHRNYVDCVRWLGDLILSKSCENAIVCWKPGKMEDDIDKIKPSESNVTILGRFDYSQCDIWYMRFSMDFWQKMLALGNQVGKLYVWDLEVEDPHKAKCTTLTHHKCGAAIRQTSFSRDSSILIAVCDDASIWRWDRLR
Sequence of Polycomb Repressive Complex 2 (PRC2), purified through FLAG-tagged human EED from HeLa or HEK293T nuclear … (Q15910 whole entry, chain 2 of 2): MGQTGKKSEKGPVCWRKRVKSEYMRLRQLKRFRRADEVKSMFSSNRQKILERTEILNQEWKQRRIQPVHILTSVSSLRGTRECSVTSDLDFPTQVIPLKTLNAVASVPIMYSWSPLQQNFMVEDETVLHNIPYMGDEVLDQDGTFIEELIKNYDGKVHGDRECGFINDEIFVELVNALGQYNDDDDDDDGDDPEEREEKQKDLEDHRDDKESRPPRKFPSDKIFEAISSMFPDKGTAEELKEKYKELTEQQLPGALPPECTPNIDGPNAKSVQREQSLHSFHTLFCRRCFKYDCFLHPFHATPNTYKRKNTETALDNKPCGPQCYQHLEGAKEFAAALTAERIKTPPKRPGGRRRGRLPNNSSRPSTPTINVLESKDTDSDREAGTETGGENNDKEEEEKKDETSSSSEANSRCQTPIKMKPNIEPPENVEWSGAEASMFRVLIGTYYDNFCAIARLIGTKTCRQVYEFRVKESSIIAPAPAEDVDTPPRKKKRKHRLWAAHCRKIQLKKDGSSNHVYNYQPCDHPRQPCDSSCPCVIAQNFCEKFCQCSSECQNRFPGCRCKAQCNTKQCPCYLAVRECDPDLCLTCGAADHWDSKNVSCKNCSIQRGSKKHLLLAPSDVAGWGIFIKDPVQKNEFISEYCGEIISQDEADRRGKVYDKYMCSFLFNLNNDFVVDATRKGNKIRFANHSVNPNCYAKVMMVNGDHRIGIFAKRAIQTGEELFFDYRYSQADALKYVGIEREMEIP

B1: H3 peptide (18-37) with Lys27 replaced by Ile (peptide)
peptide: KQLATKAARISAPSTGGVKK
- IC50, in vitro PRC2 methylation reactions: 8.9 µM
